Reference: patent US20200277377A1 (WUXI BIOLOGICS SHANGHAI, published 2020)
One block for each binder: values may come before it.

Tests used:
[1] = target: T1, hCTLA-4.ECD.hFc-Biotin (human, UniProt P16410 36-161, biotinylated (sites not given)); assay: FACS competition, hCTLA-4.ECD.hFc-Biotin on CD86-expressing CHO cells
T1 construct: extracellular domain; also called Biotinylated CTLA-4.ECD.hFc; biotinylated human CTLA4.ECD.hFc; not shown: human Fc tag (hFc)
T1 sequence (looked up): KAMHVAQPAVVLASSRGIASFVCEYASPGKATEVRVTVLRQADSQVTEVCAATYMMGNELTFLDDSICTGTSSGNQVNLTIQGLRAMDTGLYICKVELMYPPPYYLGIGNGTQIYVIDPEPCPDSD
Method: PE conjugated Streptavidin was purchased from eBioscience (Catalog number 12-4317).
Then the mixtures of antibody and CTLA-4 were added to the cells and incubated for 1 hour at 4° C. The cells were washed two times with 200 μL FACS buffer (DPBS containing 1% BSA). Streptavidin PE 1 to 333 diluted in FACS buffer was added to the cells and incubated at 4° C. for 1 hour. Additional washing steps were performed two times with 200 μL FACS buffer followed by centrifugation at 1500 rpm for 4 minutes at 4° C. Finally, the cells were resuspended in 100 μL FACS buffer and fluorescence values were measured by flow cytometry and analyzed by FlowJo.

[2] = target: 4-1BB.ECD (Homo sapiens (Human), UniProt Q07011 24-186); assay: specificity ELISA on coated antigens, OD
Method: (§1) In the ELISA assay, the testing antibodies, isotype control antibodies were tested binding to 10 different target antigens including Factor VIII, FGFR-ECD, PD-1, CTLA-4.ECD, VEGF, HER3.ECD, OX40.ECD, 4-1BB.ECD, CD22.ECD, CD3e.ECD. A 96-well plate was coated with the individual antigens (2 μg/mL) at 4° C. overnight. After 1 hour blocking with 2% BSA in PBS, wash plate 3 times with 300 μL PBST. Testing antibodies, as well as isotype control antibodies were diluted to 10 μg/mL in PBS containing 2% BSA, then were added to the plate and incubated at room temperature for 2 hours. After 3 times washing with 300 μL PBST, HRP-conjugated goat anti-human IgG antibody (1:5000 diluted in 2% BSA) was added to the plate and incubated at room temperature for 1 hours. Finally, the plates were washed six times with 300 μL PBST. The color was developed by dispensing 100 μL of TMB substrate for 12 min, and then stopped by 100 μL of 2M HCl.

[3] = target: PD-1 (Homo sapiens (Human), UniProt Q15116 25-170); assay: specificity ELISA on coated antigens, OD
Chain of PD-1 (Q15116 25-170 limits assumed): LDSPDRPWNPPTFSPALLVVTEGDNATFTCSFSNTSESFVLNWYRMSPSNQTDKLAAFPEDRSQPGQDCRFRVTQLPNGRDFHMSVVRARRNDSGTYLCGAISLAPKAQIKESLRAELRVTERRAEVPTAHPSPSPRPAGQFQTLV
Method: as §1

[4] = target: HER3.ECD (Homo sapiens (Human), UniProt P21860 20-643); assay: specificity ELISA on coated antigens, OD
Chain of HER3.ECD (P21860 20-643 limits assumed): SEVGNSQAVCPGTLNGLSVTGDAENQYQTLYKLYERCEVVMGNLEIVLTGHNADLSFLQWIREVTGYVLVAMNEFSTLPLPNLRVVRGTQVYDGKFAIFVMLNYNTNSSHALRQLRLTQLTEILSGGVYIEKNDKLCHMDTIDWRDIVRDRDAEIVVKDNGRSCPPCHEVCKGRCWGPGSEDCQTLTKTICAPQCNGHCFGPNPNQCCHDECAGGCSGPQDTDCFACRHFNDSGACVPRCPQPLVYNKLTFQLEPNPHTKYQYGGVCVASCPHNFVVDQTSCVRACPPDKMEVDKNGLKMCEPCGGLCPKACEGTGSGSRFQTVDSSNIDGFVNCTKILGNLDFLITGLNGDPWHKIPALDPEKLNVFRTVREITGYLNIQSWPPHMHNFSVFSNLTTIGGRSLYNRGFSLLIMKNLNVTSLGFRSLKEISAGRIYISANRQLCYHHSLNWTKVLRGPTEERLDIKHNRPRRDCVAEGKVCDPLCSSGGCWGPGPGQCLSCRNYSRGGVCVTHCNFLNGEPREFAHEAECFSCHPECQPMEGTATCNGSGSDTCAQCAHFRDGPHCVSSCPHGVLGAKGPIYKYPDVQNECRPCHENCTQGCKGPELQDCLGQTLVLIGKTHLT
Method: as §1

[5] = target: CD3e.ECD (Homo sapiens (Human), UniProt P07766 23-126); assay: specificity ELISA on coated antigens, OD
Chain of CD3e.ECD (P07766 23-126 limits assumed): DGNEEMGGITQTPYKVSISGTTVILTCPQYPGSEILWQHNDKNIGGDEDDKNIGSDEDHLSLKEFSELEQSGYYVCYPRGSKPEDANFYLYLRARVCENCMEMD
Method: as §1

[6] = target: T2, human CTLA-4.ECD-6×His (human, UniProt P16410 36-161); assay: SPR, antibody captured on anti-human Fc, CTLA-4.ECD-6×His as analyte, 1:1 fit
T2 construct: extracellular domain; also called WBP316.hCTLA-4.ECD-6×His; hCTLA4-His (WT)
T2 sequence: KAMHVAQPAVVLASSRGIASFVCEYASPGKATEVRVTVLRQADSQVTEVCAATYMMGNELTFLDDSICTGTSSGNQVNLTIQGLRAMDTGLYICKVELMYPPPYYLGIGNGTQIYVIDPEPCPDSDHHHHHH
Method: (§2) Biacore T200, Series S Sensor Chip CMS, Amine Coupling Kit, and 10×HBS-EP were purchased from GE Healthcare. […] In immobilization step, the activation buffer was prepared by mixing 400 mM EDC and 100 mM NHS immediately prior to injection. The CM5 sensor chip was activated for 420 s with the activation buffer. 30 μg/mL of goat anti-human IgG Fcγ antibody in 10 mM NaAc (pH 4.5) was then injected to Fc1-Fc4 channels for 200 s at a flow rate of 5 μL/min. The chip was deactivated by 1 M ethanolamine-HCl (GE). Then the antibodies were captured on the chip. Briefly, 4 μg/mL antibodies in running buffer (HBS-EP+) was injected individually to Fc3 channel for 30 s at a flow rate of 10 μL/min. […] Regeneration buffer (10 mM Glycine pH 1.5) was injected at 10 μL/min for 30 s following every dissociation phase.
(§3) The binding kinetics of these antibodies were measured using SPR. The antibodies were captured on immobilized anti-human Fc and CTLA-4-ECD at different concentration was injected orderly. The sensorgrams for reference channel and buffer channel were subtracted from the test sensorgrams. The data was used for 1:1 binding analysis on human, monkey and mouse CTLA-4.ECD-6×His.

[7] = target: T3, cynomolgus monkey CTLA-4 ECD-6×His (cynomolgus monkey); assay: as above
T3 construct: extracellular domain; Bought; also called cynomoguls monkey CTLA-4.ECD-6×His
Method: as §2, §3

[8] = target: T4, full length human CTLA-4 on cells (human, UniProt P16410 36-223); assay: flow cytometry affinity on cells expressing human CTLA-4
T4 construct: whole, on cells; also called CTLA-4-expressing cell line
T4 sequence (looked up): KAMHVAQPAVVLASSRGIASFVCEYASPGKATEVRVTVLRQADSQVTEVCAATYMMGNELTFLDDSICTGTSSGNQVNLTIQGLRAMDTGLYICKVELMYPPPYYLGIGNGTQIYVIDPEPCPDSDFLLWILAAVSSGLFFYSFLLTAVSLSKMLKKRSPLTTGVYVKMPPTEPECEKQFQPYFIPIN
Method: Briefly, HEK293 cells expressing human CTLA-4 were transferred in to 96-well U-bottom plates (BD) at a density of 5×10⁴ cells/well. Testing antibodies were 1:2-fold serially diluted in PBS with 1% BSA and incubated with cells at 4° C. for 1 hour. After centrifugation at 1500 rpm for 4 min, the supernatant was discarded. The secondary antibody, FITC conjugated goat anti-human IgG Fc (3.2 FITC per IgG, Jackson Immunoresearch Lab), was added to re-suspend cells to final concentration 14 μg/ml, and incubated at 4° C. in the dark for 30 min. The cells were then washed once and re-suspended in PBS with 1% BSA, and analyzed by flow cytometery (BD). Fluorescence intensity was converted to bound molecules/cell based on the quantitative beads (Quantum™ MESF Kits, Bangs Laboratories). KD was calculated using Graphpad Prism5.
The affinity of humanized antibodies binding to cell surface CTLA-4 was measured by flow cytometry method, modified from Benedict's method [Benedict 1997 JIM].

IC50 [1]: 280 pM
binding result [2]: no binding (tested: 10 ug/mL)
binding result [3]: no binding (tested: 10 ug/mL)
binding result [4]: no binding (tested: 10 ug/mL)
binding result [5]: no binding (tested: 10 ug/mL)
Kd [6]: 96.8 pM
koff [6]: 0.000119 s⁻¹
kon [6]: 1.23e+06 M⁻¹ s⁻¹
Kd [7]: 131 pM
koff [7]: 0.000122 s⁻¹
kon [7]: 932000 M⁻¹ s⁻¹
Kd [8]: 350 pM
B1: W3162_1.154.8-z35-uAb.IgG1K (antibody, V domains shown)
VH: QVQLVQSGAEVKKPGSSVKVSCKASGYTFTNYFMNWVRQAPGQGLEWMGRVDPEQGRADYAEKFKKRVTITADKSTSTAYMELSSLRSEDTAVYYCARRAMDNYGFAYWGQGTLVTVSS
VL: EIVLTQSPDFQSVTPKEKVTITCSANSALSYMYWYQQKPDQSPKLWVHGTSNLASGVPSRFSGSGSGTDFTLTINSLEAEDAATYYCHHWSNTQWTFGGGTKVEIK
notes: Humanized; label says IgG1K

IC50 [1]: 5150 pM
binding result [2]: no binding (tested: 10 ug/mL)
binding result [3]: no binding (tested: 10 ug/mL)
binding result [4]: no binding (tested: 10 ug/mL)
binding result [5]: no binding (tested: 10 ug/mL)
Kd [6]: 477 pM
koff [6]: 9.82e-05 s⁻¹
kon [6]: 206000 M⁻¹ s⁻¹
Kd [7]: 1920 pM
koff [7]: 0.000331 s⁻¹
kon [7]: 173000 M⁻¹ s⁻¹
Kd [8]: 5000 pM
B2: W3162-1.146.19-z12-uAb.IgG1K (antibody, V domains shown)
VH: QVQLQESGPGLVKPSETLSLTCSVTYHTITSGYDWTWIRKPPGKGMEWIGYISYSGNTNYNPSLKSRVTISRDTSKNQFFLKLSSVTAADTAVYYCASMMVPHYYVMDAWGQGTLVTVSS
VL: DIVMTQTPLSLSVTPGQPASISCRSSQSLLNSDGNTYLYWYLQKPGQSPQLLIYLVSKLGSGVPNRFSGSGSGTDFTLKISRVEAEDVGVYYCVQGTHDPWTFGGGTKVEIK
notes: Humanized; label says IgG1K
